Assay results as given in patent US20230250154A1 (CYTONICS, published 2023).

Key:
Assay in all cases: cell-based or functional assay
ADAMTS4 = target: T1, ADAMTS4 (human, UniProt O75173 213-685, limits assumed)
T1 sequence (looked up): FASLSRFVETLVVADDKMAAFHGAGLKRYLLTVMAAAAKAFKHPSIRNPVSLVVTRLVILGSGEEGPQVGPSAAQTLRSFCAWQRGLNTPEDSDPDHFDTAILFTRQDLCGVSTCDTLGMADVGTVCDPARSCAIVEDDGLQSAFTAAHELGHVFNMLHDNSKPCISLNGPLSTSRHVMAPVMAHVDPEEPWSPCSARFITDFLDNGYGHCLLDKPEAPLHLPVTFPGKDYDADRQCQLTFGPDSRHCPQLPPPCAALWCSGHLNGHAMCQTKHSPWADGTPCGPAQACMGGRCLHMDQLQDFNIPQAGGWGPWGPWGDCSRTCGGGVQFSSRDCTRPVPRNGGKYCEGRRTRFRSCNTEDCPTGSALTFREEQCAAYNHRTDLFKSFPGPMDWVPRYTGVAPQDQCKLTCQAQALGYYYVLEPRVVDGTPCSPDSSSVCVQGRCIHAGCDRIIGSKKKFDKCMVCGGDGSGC

ADAMTS5 = target: T2, ADAMTS5 (human, UniProt Q9UNA0 262-622, limits assumed)
T2 sequence (looked up): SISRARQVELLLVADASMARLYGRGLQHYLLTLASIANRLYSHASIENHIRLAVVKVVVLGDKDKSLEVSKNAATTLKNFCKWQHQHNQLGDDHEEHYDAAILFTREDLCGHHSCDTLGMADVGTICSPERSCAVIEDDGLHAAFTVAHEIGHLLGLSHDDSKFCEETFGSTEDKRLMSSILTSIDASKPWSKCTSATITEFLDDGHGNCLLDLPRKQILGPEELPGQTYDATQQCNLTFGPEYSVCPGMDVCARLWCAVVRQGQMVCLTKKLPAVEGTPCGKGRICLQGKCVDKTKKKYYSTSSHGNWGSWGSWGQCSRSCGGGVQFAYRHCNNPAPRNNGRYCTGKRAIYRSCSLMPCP

MMP13 = MMP13 (human, UniProt P45452 104-471, limits assumed)

B1: Variant A2M, bait region SEQ ID NO 85 (other)
chain: SVSGKPQYMVLVPSLLHTETTEKGCVLLSYLNETVTVSASLESVRGNRSLFTDLEAENDVLHCVAFAVPKSSSNEEVMFLTVQVKGPTQEFKKRTTVMVKNEDSLVFVQTDKSIYKPGQTVKFRVVSMDENFHPLNELIPLVYIQDPKGNRIAQWQSFQLEGGLKQFSFPLSSEPFQGSYKVVVQKKSGGRTEHPFTVEEFVLPKFEVQVTVPKIITILEEEMNVSVCGLYTYGKPVPGHVTVSICRKYSDASDCHGEDSQAFCEKFSGQLNSHGCFYQQVKTKVFQLKRKEYEMKLHTEAQIQEEGTVVELTGRQSSEITRTITKLSFVKVDSHFRQGIPFFGQVRLVDGKGVPIPNKVIFIRGNEANYYSNATTDEHGLVQFSINTTNVMGTSLTVRVNYKDRSPCYGYQWVSEEHEEAHHTAYLVFSPSKSFVHLEPMSHELPCGHTQTVQAHYILNGGTLLGLKKLSFYYLIMAKGGIVRTGTHGLLVKQEDMKGHFSISIPVKSDIAPVARLLIYAVLPTGDVIGDSAKYDVENCLANKVDLSFSPSQSLPASHAHLRVTAAPQSVCALRAVDQSVLLMKPDAELSASSVYNLLPEKDLTGFPGPLNDQDDEDCINRHNVYINGITYTPVSSTNEKDMYSFLEDMGLKAFTNSKIRKPKMCPQLEQYEMHGPEGLRVGIPENFFGVSELEGRGSKEEEGLGSKLRKYFPETWIWDLVVVNSAGVAEVGVTVPDTITEWKAGAFCLSEDAGLGISSTASLRAFQPFFVELTMPYSVIRGEAFTLKATVLNYLPKCIRVSVQLEASPAFLAVPVEKEQAPHCICANGRQTVSWAVTPKSLGNVNFTVSAEALESQELCGTEVPSVPEHGRKDTVIKPLLVEPEGLEKETTFNSLLCPSGGEVSEELSLKLPPNVVEESARASVSVLGDILGSAMQNTQNLLQMPYGCGEQNMVLFAPNIYVLDYLNETQQLTPEIKSKAIGYLNTGYQRQLNYKHYDGSYSTFGERYGRNQGNTWLTAFVLKTFAQARAYIFIDEAHITQALIWLSQRQKDNGCFRSSGSLLNNAIKGGVEDEVTLSAYITIALLEIPLTVTHPVVRNALFCLESAWKTAQEGDHGSHVYTKALLAYAFALAGNQDKRKEVLKSLNEEAVKKDNSVHWERPQKPKAPVGHFYEPQAPSAEVEMTSYVLLAYLTAQPAPTSEDLTSATNIVKWITKQQNAQGGFSSTQDTVVALHALSKYGAATFTRTGKAAQVTIQSSGTFSSKFQVDNNNRLLLQQVSLPELPGEYSMKVTGEGCVYLQTSLKYNILPEKEEFPFALGVQTLPQTCDEPKAHTSFQISLSVSYTGSRSASNMAIVDVKMVSGFIPLKPTVKMLERSNHVSRTEVSSNHVLIYLDKVSNQTLSLFFTVLQDVPVRDLKPAIVKVYDYYETDEFAIAEYNAPCSKDLGNADYKDDDDKGASHHHHHH
Protease Inhibition (% of WT) (ADAMTS4): 78 % of WT | Protease Inhibition (% of WT) (ADAMTS5): 174 % of WT | Protease Inhibition (% of WT) (MMP13): 170 % of WT
